Test results: US20090035322A1 (Regeneron, published 2009)
Where two headings read alike, the source gives them in different places.

Assays:
human CD20 [1] = biological target: T1, human CD20 (human, UniProt P11836 1-297); test: cell-based or functional assay
T1 sequence: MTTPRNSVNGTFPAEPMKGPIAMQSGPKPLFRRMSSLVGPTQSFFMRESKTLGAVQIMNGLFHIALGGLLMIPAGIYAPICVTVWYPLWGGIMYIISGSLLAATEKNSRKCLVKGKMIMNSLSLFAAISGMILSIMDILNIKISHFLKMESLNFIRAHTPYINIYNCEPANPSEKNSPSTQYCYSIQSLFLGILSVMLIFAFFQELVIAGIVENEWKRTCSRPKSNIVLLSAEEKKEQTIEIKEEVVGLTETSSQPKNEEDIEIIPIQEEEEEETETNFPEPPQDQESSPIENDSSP

human CD20 [2] = biological target: T1, human CD20; test: flow cytometry, hCD20-transfected MG87 cells
Protocol: Briefly, parental MG87 and human CD20-transfected MG87 cells were incubated for 30 min at 4° C. with each of the 15 human antibodies and the two control antibodies, followed by incubation with PE-conjugated anti-human IgG antibody. Binding was assessed by flow cytometry. Fluorescence intensities were compared with binding to the parental cell line and control isotype-matched sample.

human CD20 [3] = biological target: T1, human CD20; test: cell-based or functional assay; remark: listed apart in the source
human CD20 [4] = biological target: T1, human CD20; test: cell-based or functional assay; remark: listed apart in the source
human CD20 [5] = biological target: T1, human CD20; test: cell-based or functional assay; remark: listed apart in the source
[6] = biological target: T2, mutant human CD20 #10 (A157V) (human, UniProt P11836 1-297); test: FACS, mutant-hCD20 MG87 cells; 100%=best antibody
T2 construct: Stably expressed on MG87 cells
T2 sequence: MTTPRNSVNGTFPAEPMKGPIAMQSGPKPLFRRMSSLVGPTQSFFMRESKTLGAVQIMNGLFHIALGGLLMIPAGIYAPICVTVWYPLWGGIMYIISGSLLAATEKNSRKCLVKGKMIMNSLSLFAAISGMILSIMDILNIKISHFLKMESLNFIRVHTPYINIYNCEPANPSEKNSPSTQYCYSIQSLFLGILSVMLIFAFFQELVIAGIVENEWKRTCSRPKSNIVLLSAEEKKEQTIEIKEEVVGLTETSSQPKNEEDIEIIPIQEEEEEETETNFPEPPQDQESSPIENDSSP
Protocol: (§1) Briefly, approximately 1×10⁶ cells from each stably transfected cell line expressing a mutant human CD20 were collected and incubated with each anti-human antibody, at 10 μg/ml, on ice for 1 hr, followed by incubation with APC-conjugated goat anti-human IgG (Jackson Immunolabs), at 10 μg/ml, on ice for 45 min. For each antibody, binding to each mutant human CD20 was assessed by flow cytometry.

[7] = biological target: T3, mutant human CD20 #7 (Y77F, N163D) (human, UniProt P11836 1-297); test: FACS, mutant-hCD20 MG87 cells; 100%=best antibody
T3 construct: Stably expressed on MG87 cells
T3 chain: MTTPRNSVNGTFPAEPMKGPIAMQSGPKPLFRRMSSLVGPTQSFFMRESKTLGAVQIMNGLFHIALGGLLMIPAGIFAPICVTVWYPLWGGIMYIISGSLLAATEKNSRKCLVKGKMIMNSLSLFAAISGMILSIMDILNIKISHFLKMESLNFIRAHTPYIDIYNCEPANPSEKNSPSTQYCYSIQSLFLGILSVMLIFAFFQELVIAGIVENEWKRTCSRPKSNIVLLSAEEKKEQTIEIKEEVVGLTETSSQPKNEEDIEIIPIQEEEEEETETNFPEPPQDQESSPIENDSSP
Protocol: as §1

[8] = biological target: T4, mutant human CD20 #8 (Y77F, N163D, N166D) (human, UniProt P11836 1-297); test: FACS, mutant-hCD20 MG87 cells; 100%=best antibody
T4 construct: Stably expressed on MG87 cells
T4 chain: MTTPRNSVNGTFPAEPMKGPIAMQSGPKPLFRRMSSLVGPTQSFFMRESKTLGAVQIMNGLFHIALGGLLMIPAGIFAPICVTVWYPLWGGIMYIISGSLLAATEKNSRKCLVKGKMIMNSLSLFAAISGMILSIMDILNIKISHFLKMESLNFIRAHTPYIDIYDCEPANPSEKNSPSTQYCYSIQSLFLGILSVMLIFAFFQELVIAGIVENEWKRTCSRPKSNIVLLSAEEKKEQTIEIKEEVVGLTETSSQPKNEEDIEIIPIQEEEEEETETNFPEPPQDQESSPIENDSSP
Protocol: as §1

[9] = biological target: T5, mutant human CD20 #3 (A170S, P172S) (human, UniProt P11836 1-297); test: FACS, mutant-hCD20 MG87 cells; 100%=best antibody
T5 construct: Stably expressed on MG87 cells
T5 chain: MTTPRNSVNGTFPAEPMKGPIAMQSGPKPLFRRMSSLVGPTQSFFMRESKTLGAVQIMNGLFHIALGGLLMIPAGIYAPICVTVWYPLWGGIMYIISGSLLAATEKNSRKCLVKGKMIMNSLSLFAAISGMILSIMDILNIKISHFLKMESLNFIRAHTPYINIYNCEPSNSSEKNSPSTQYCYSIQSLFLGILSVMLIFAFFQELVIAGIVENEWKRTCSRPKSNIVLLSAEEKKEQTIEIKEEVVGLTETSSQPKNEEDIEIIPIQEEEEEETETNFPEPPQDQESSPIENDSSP
Protocol: as §1

[10] = biological target: T6, mutant human CD20 #9 (N163D, N166D) (human, UniProt P11836 1-297); test: FACS, mutant-hCD20 MG87 cells; 100%=best antibody
T6 construct: Stably expressed on MG87 cells
T6 chain: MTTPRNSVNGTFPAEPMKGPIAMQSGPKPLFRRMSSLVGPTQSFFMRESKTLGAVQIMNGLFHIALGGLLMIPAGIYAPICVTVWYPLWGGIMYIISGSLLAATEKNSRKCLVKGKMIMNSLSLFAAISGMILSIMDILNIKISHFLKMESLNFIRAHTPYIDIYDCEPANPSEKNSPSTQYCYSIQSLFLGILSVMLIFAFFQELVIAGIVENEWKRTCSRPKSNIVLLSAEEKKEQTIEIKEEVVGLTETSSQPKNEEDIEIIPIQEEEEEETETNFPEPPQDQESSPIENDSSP
Protocol: as §1

[11] = biological target: T7, mutant human CD20 #2 (N163D) (human, UniProt P11836 1-297); test: FACS, mutant-hCD20 MG87 cells; 100%=best antibody
T7 construct: Stably expressed on MG87 cells
T7 sequence: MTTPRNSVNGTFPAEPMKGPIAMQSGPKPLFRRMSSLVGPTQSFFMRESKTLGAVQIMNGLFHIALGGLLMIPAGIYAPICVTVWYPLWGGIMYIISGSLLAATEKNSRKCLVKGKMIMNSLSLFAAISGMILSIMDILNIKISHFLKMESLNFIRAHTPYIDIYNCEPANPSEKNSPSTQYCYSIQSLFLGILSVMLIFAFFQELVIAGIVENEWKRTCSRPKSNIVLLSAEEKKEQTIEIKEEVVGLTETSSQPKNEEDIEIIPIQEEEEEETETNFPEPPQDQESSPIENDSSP
Protocol: as §1

[12] = biological target: T8, mutant human CD20 #6 (Y77F, N166D) (human, UniProt P11836 1-297); test: FACS, mutant-hCD20 MG87 cells; 100%=best antibody
T8 construct: Stably expressed on MG87 cells
T8 chain: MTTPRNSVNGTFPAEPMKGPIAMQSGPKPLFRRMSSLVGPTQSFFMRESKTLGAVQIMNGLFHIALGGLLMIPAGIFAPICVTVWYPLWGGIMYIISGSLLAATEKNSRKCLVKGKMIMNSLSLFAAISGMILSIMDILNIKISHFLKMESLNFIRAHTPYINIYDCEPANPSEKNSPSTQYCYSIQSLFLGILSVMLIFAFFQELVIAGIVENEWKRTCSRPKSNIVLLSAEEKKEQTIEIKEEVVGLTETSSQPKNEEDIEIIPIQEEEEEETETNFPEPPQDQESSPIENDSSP
Protocol: as §1

[13] = biological target: T9, mutant human CD20 #4 (N166D) (human, UniProt P11836 1-297); test: FACS, mutant-hCD20 MG87 cells; 100%=best antibody
T9 construct: Stably expressed on MG87 cells
T9 sequence: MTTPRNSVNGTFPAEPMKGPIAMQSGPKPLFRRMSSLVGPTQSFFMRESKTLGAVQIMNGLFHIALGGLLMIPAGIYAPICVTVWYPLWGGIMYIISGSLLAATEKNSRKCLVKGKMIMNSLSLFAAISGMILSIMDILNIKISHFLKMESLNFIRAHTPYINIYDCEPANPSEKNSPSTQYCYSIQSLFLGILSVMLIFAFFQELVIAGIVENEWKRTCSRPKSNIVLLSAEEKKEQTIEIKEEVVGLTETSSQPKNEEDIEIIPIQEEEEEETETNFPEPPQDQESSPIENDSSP
Protocol: as §1

[14] = biological target: T10, mutant human CD20 #1 (Y77F) (human, UniProt P11836 1-297); test: FACS, mutant-hCD20 MG87 cells; 100%=best antibody
T10 construct: Human residues replaced by mouse residues; stably expressed on MG87 cells
T10 sequence: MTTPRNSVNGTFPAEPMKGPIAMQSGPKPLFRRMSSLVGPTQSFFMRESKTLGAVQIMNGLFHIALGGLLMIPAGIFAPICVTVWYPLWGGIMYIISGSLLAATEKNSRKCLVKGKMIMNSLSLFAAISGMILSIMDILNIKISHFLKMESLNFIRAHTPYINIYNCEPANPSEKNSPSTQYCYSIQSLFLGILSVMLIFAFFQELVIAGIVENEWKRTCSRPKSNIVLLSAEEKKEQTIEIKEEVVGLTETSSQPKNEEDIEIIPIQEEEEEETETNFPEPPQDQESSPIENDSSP
Protocol: as §1

B1: rituximab (RITUXAN, IDEC Pharmaceuticals Corp.) (antibody, V domains shown)
VH: QVQLQQPGAELVKPGASVKMSCKASGYTFTSYNMHWVKQTPGRGLEWIGAIYPGNGDTSYNQKFKGKATLTADKSSSTAYMQLSSLTSEDSAVYYCARSTYYGGDWYFNVWGAGTTVTVSA
VL: QIVLSQSPAILSASPGEKVTMTCRASSSVSYIHWFQQKPGSSPKPWIYATSNLASGVPVRFSGSGSGTSYSLTISRVEAEDAATYYCQQWTSNPPTFGGGTKLEIK
- CDC, Daudi EC50 (human CD20 [1]): 0.84 nM
- CDC, RL EC50 (human CD20 [1]): > 50 nM
- Total Mean Fluorescent Intensity (human CD20 [2]): 2960
- % Cytotoxicity (CDC, Daudi), 0 hour (human CD20 [3]): 98.5%
- % Cytotoxicity (CDC, Daudi), 1 hour (human CD20 [3]): 86.9%
- % Cytotoxicity (CDC, Daudi), 6 hour (human CD20 [3]): 16%
- % Cytotoxicity (CDC, Daudi), 0 hour (human CD20 [4]): 91.9%
- % Cytotoxicity (CDC, Daudi), 1 hour (human CD20 [4]): 65.3%
- % Cytotoxicity (CDC, Daudi), 6 hour (human CD20 [4]): 52.1%
- % Cytotoxicity (CDC, Daudi), 0 hour (human CD20 [5]): 98.3%
- % Cytotoxicity (CDC, Daudi), 1 hour (human CD20 [5]): 81.1%
- % Cytotoxicity (CDC, Daudi), 6 hour (human CD20 [5]): 20.5%

B2: 2F2 (antibody, V domains shown)
VH: EVQLVESGGGLVQPGRSLRLSCAASGFTFNDYAMHWVRQAPGKGLEWVSTISWNSGSIGYADSVKGRFTISRDNAKKSLYLQMNSLRAEDTALYYCAKDIQYGNYYYGMDVWGQGTTVTVSS
VL: EIVLTQSPATLSLSPGERATLSCRASQSVSSYLAWYQQKPGQAPRLLIYDASNRATGIPARFSGSGSGTDFTLTISSLEPEDFAVYYCQQRSNWPITFGQGTRLEIK
- Percent of Binding to Mutant Human CD20 [6]: 79%
- Percent of Binding to Mutant Human CD20 [7]: 1%
- Percent of Binding to Mutant Human CD20 [8]: 0%
- Percent of Binding to Mutant Human CD20 [9]: 70%
- Percent of Binding to Mutant Human CD20 [10]: 4%
- Percent of Binding to Mutant Human CD20 [11]: 30%
- Percent of Binding to Mutant Human CD20 [12]: 1%
- Percent of Binding to Mutant Human CD20 [13]: 51%
- Percent of Binding to Mutant Human CD20 [14]: 60%
